Reference: patent US20240301076A1
One block for each substance: values may come before it.

Molecular target: human CXCR2 (human) (UniProt P25025)
Assay: cell-based or functional assay

Chain of human CXCR2 (human) (P25025 whole entry): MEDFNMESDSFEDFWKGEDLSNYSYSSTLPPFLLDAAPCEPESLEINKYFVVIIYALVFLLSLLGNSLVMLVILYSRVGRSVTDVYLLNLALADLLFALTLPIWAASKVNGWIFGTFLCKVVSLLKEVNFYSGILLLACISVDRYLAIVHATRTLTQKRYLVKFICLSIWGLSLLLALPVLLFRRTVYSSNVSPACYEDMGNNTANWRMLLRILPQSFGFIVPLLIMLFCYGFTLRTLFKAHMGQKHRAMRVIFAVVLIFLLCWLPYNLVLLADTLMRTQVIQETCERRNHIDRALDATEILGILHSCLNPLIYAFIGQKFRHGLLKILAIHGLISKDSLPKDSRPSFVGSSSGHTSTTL
Chain of human CXCL3 (P19876 35-107 limits assumed): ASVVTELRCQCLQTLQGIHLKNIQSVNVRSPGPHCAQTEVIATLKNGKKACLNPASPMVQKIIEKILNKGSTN
Chain of human CXCL6 (P80162 38-114 limits assumed): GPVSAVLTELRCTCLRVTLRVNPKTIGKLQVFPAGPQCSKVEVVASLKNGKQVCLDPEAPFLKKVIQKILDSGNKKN
Chain of human CXCL5 (P42830 37-114 limits assumed): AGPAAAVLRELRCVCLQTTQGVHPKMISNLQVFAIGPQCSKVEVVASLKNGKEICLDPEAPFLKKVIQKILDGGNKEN
Chain of human CXCL8 (P10145 28-99 limits assumed): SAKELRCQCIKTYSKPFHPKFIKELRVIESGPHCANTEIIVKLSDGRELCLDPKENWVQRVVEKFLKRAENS
Chain of human CXCL2 (P19875 35-107 limits assumed): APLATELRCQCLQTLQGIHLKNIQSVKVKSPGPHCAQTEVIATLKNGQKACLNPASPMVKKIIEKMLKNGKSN
Chain of human CXCL1 (P09341 35-107 limits assumed): as the sequence (P19875 35-107 limits assumed) above, with P2S, L3V, L20P, K27N, Q48R, M58I, K68N, N69S, G70D counted along it

Substance: Antagonist 4 (anti-CXCR2 antibody clone 6C6, BD Biosciences 555932)
CXCL1 IC50, calcium flux: 1.29 nM
CXCL1 IC50, β-arrestin recruitment: 1.47 nM
CXCL1 Maximal Inhibition %, calcium flux: 93%
CXCL1 Maximal Inhibition %, β-arrestin recruitment: 96%
CXCL5 IC50, β-arrestin recruitment: 0.75 nM
CXCL5 Maximal Inhibition %, β-arrestin recruitment: 99%
CXCL8 IC50, β-arrestin recruitment: 1.01 nM
CXCL8 Maximal Inhibition %, calcium flux: 1%
CXCL8 Maximal Inhibition %, β-arrestin recruitment: 94%

Substance: human CXCL1 (from UniProt P09341 35-107) (ligand)
EC50 mean, Tango assay: 2.3 nM
EC50 mean, calcium flux assay: 2.62 nM

Substance: human CXCL3 (from UniProt P19876 35-107) (ligand)
EC50 mean, Tango assay: 11.9 nM
EC50 mean, calcium flux assay: 12.2 nM

Substance: human CXCL5 (from UniProt P42830 37-114) (ligand)
EC50 mean, Tango assay: 97.7 nM
EC50 mean, calcium flux assay: 39.2 nM

Other lines, results leading:

CXCL1 IC50, calcium flux: 30.7 nM
CXCL1 IC50, β-arrestin recruitment: 14.8 nM
CXCL1 Maximal Inhibition %, calcium flux: 37%
CXCL1 Maximal Inhibition %, β-arrestin recruitment: 85%
CXCL5 IC50, β-arrestin recruitment: 8.12 nM
CXCL5 Maximal Inhibition %, β-arrestin recruitment: 96%
CXCL8 Maximal Inhibition %, calcium flux: 18%
CXCL8 Maximal Inhibition %, β-arrestin recruitment: 82%
Substance: Antagonist 3 (anti-CXCR2 antibody clone 48311, R&D systems MAB331-500)

EC50 mean, Tango assay: 33.3 nM
EC50 mean, calcium flux assay: 37 nM
Substance: human CXCL2 (from UniProt P19875 35-107) (ligand)

EC50 mean, Tango assay: 9.4 nM
EC50 mean, calcium flux assay: 28.9 nM
Substance: human CXCL6 (from UniProt P80162 38-114) (ligand)

EC50 mean, Tango assay: 2.2 nM
EC50 mean, calcium flux assay: 3.2 nM
Substance: human CXCL8 (from UniProt P10145 28-99) (ligand)
